These results are taken from paper PMC7327521 (Journal of Molecular Biology, 2020).

What all share (assay): fluorescence polarisation
On the technique in general: Fluorescence polarisation rises when a labelled molecule tumbles more slowly, as on binding a larger partner.

The target of assay [1] is T1, tandem SH2 domain of C. glabrata Spt6 (Spt6-tSH2) (C. glabrata, UniProt Q6FLB1 1250-1444).
T1 sequence (looked up): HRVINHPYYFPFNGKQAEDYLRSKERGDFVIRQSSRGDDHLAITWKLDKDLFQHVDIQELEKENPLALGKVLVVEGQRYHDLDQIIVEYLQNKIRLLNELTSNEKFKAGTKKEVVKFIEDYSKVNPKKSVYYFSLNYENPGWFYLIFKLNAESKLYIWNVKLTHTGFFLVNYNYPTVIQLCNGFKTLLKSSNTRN

For a further assay, the target named is T2, Spt6-tSH2 R1285A (C. glabrata, UniProt Q6FLB1 1250-1444, R1285A).
T2 sequence (looked up): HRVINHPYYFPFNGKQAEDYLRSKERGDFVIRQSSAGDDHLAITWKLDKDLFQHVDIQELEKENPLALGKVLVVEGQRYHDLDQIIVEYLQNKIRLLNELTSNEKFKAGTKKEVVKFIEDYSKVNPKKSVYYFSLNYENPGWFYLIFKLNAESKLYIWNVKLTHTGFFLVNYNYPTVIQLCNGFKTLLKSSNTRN

For the next assay, the target named is T3, Spt6-tSH2 E1324A (C. glabrata, UniProt Q6FLB1 1250-1444, E1324A).
T3 sequence (looked up): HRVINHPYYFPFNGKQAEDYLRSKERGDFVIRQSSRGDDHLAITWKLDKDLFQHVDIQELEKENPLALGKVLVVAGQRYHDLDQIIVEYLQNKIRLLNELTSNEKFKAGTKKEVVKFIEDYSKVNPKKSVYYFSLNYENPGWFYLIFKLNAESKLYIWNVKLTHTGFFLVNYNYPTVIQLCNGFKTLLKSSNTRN

The target of another assay is T4, Spt6-tSH2 R1281A/R1285A (C. glabrata, UniProt Q6FLB1 1250-1444, R1281A | R1285A).
T4 sequence (looked up): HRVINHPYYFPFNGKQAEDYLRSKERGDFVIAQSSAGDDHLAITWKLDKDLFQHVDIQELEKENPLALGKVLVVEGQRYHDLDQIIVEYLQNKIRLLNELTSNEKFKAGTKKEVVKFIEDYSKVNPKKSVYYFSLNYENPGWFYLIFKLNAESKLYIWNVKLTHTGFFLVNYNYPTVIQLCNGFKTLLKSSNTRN

For the next assay, the target named is T5, Spt6-tSH2 S1283A (C. glabrata, UniProt Q6FLB1 1250-1444, S1283A).
T5 sequence (looked up): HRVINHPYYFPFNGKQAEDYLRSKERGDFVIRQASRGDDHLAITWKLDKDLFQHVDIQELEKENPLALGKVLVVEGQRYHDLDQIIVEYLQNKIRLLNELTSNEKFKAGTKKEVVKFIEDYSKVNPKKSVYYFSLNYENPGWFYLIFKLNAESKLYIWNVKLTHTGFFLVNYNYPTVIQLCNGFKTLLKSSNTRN

A further assay concerns the target T6, Spt6-tSH2 R1281A/S1283A (C. glabrata, UniProt Q6FLB1 1250-1444, R1281A | S1283A).
T6 sequence (looked up): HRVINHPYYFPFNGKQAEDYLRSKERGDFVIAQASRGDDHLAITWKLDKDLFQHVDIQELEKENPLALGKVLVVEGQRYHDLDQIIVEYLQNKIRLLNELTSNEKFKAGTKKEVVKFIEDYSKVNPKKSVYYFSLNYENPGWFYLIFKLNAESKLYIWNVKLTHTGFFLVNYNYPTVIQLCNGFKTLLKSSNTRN

The target of assay [2] is T7, Spt6 from S. cerevisiae lacking the first unstructured 297 residues (Spt6ΔN) (S. cerevisiae, UniProt P23615 298-1451).
T7 sequence (looked up): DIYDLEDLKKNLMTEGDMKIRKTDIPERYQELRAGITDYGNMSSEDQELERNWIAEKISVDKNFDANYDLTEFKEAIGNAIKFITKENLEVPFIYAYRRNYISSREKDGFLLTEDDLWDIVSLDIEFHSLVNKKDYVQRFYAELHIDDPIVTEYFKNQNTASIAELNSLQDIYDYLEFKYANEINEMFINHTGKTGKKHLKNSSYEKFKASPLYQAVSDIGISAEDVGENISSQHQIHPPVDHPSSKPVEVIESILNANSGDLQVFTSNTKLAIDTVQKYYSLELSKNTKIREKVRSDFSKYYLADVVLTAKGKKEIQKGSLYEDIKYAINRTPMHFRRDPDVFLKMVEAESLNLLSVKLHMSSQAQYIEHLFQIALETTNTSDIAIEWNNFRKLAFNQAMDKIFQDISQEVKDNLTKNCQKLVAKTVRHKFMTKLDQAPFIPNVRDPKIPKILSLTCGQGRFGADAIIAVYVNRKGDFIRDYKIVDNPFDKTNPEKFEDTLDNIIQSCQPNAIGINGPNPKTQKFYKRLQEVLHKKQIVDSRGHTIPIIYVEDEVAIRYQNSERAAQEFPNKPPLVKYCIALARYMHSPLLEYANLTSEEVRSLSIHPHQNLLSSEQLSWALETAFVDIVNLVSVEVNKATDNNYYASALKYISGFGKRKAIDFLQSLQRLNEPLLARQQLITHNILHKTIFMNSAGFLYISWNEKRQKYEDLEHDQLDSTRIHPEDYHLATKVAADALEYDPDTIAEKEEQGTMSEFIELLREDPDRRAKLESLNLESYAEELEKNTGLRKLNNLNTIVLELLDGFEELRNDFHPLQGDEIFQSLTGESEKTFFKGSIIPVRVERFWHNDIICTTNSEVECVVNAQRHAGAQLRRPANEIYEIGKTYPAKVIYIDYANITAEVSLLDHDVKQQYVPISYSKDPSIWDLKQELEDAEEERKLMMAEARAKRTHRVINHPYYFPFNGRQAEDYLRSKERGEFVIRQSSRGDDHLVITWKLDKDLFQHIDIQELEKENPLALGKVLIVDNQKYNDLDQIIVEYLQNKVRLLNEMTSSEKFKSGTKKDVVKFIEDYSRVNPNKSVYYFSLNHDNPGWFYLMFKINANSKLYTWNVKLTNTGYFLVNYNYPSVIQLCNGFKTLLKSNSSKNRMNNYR

Square brackets hold non-standard residues; d marks the D form. Ends that are not written are not given here. pY = N[C@@H](Cc1ccc(OP(=O)(O)O)cc1)C(=O)O

What is called Kd is the constant that tells how readily two partners part at equilibrium. Turning to {5,6‑FAM}-PS[pY]SPTSPS[pY]SPTSPS [(pY1-CTD)2, FAM-labelled tyrosine-phosphorylated CTD diheptad], the Kd in assay [1] came to 5.1 µM; with Spt6-tSH2 R1285A it was 12 µM; with Spt6-tSH2 E1324A, 1.4 µM; in the assay with Spt6-tSH2 R1281A/R1285A, 11.6 µM; with Spt6-tSH2 S1283A, 5.4 µM; with Spt6-tSH2 R1281A/S1283A it was 35.5 µM. Besides, the Kd in assay [2] stood at 4 ± 0.5 µM.
